Test results from US20070292420A1 (Janssen / Centocor, published 2007).

Legend:
[1] = target: T1, recombinant human IL-6 (human, UniProt P05231 30-212); assay: SPR (BIAcore 2000, 25 C); cCLB8 captured on anti-human Fc, IL-6 as analyte; 1:1 model; second experiment
T1 construct: Bought recombinant protein; also called rhIL-6; HuIL-6
Method: (§1) An anti-human Fc (1.8 mg/ml) was diluted to a concentration of 50 μg/ml in NaOAc buffer (10 mM, pH 4.8) and coupled to the carboxymethylated dextran matrix of a CM-5 sensor chip using the manufacturer's amine-coupling chemistry as described in the BIAcore systems manual. Using the surface preparation wizard aiming for 10000 RU, the carboxyl groups on the sensor surfaces were first activated with NHS/EDC followed by the addition of the anti-human Fc. The remaining activated groups were blocked by the injection of 1M ethanolamine. Each of the flow cells was coupled individually. Employing these conditions, the four flow cell surfaces containing 7554-9571 resonance units (RU) of anti-human Fc were prepared. In preliminary experiments, it was determined that three injections (15 ul at 30 μl/min) 100mM H3PO4/0.05% CHAPS would efficiently remove the bound immunoglobulin and preserve the binding capacity of the immobilized anti-human Fc.
(§2) Two experiments were performed on the BIAcore 2000 at 25 °C and a flow rate of 30 μL/min. cCLB8 was dissolved in HBS at 5 ug/ml. […] A designated amount of antibody was flowed over its respective flow cell followed by injections of 30 μl of each IL-6 concentration at 30 μl/min (association phase) and an uninterrupted 800 seconds of buffer flow (dissociation phase). The surface of the chip was regenerated by three sequential injections of 15 μl each with 100 mM H3PO4/0.05% CHAPS. The injections of HBS serve as a reference (blank sensogram) for the subtraction of bulk refractive indices for analysis. Using the 1:1 model in BIAanalysis 3.0, a local fit was done for both dissociation (kd, [s−1] and association (ka, [M-1s−1]) and the dissociation constant (KD, [M]) calculated (kd/ka).
(§3) Analysis was done using BIAevaluation version 3.0. Kinetic constants were derived from sensogram data by fitting the experimental curves to the rate equations derived from models of the interaction mechanism. A global analysis using a 1:1 binding model with local RUmax fit, the ka, kd, KD were determined (Table 1).

[2] = target: T1, recombinant human IL-6; assay: SPR (BIAcore 2000, 25 C); cCLB8 captured on anti-human Fc, IL-6 as analyte; 1:1 model
Method: as §1, §2, §3

[3] = target: T1, recombinant human IL-6; assay: cell-based or functional assay
[4] = target: T1, recombinant human IL-6; assay: solid phase EIA, plate coated with recombinant human IL-6 at 1 µg/mL, detection with HRP goat anti-human IgG, OD 490
Method: A solid phase EIA was used to assess binding characteristics of cCLB8 Mab to human IL-6. Briefly, plates were coated with recombinant human IL-6 (RDI) at 1 μg/mL in PBS overnight at 4° C. After washing in 0.15M saline containing 0.02% (v/v) Tween 20, the wells were blocked with 1% (w/v) BSA in PBS, 200 μL/well for 1 hour at RT. Purified antibody was incubated in two-fold serial dilutions from a starting concentration of 5 μg/mL for 1 hour at 37° C. The plate was washed and then probed with 50 μL/well HRP-labeled goat anti-human IgG (Tago) diluted 1:20,000 in 1% BSA-PBS for 1 hour at RT. The plate was again washed and 100 μL/well of the citrate-phosphate substrate solution (0.1 M citric acid and 0.2M sodium phosphate, 0.01% H₂O₂ and 1 mg/mL OPD) was added for 15 minutes at RT. Stop solution (4N sulfuric acid) was then added at 25 μL/well and the absorption at 490 nm quantitated using an automated plate photometer.

- Kd [1]: 0.14 nM
- koff [1]: 5.2e-05 s⁻¹
- kon [1]: 370000 M⁻¹ s⁻¹
- Kd [2]: 0.057 nM
- koff [2]: 6.2e-05 s⁻¹
- kon [2]: 1.1e+06 M⁻¹ s⁻¹
- EC50 (read off the curve) [4]: ~4 ng/mL
B1: chimeric CLB8 anti-human IL-6 monoclonal antibody (antibody, IgG1, V domains shown)
VH: EVQLVESGGKLLKPGGSLKLSCAASGFTFSSFAMSWFRQSPEKRLEWVAEISSGGSYTYYPDTVTGRFTISRDNAKNTLYLEMSSLRSEDTAMYYCARGLWGYYALDYWGQGTSVTVSS
VL: QIVLIQSPAIMSASPGEKVTMTCSASSSVSYMYWYQQKPGSSPRLLIYDTSNLASGVPVRFSGSGSGTSYSLTISRMEAEDAATYYCQQWSGYPYTFGGGTKLEIK
notes: Murine CLB-8 variable regions joined to human constant regions; IgG1 and kappa are named only as preferred; also called anti-IL-6 cCLB-8 antibody; CNTO 328
- EC50 of inhibition of IL-6 induced 7TD1 cell proliferation (luminescent ATP assay) [3]: 7.2 ng/mL
